The target of the experiment is purified glutathione reductase (GR). Kind of experiment: cell-based or functional assay.

For one substance, GR activity in vitro (purified GR with purified αBC, compared to a BSA control; proteins added results are on record in patent US20120124684A1.

In the case of purified αBC, the GR activity in vitro (purified GR with purified αBC, compared to a BSA control; proteins added at a 1:4 molar ratio to GR) was determined as 18%.
